Molecular target: TF-HIS-BBX13 (BBX13/COL15) (Arabidopsis thaliana, UniProt Q9C7E8 1-433)
Test: EMSA

Chain of TF-HIS-BBX13 (BBX13/COL15) (Q9C7E8 whole entry): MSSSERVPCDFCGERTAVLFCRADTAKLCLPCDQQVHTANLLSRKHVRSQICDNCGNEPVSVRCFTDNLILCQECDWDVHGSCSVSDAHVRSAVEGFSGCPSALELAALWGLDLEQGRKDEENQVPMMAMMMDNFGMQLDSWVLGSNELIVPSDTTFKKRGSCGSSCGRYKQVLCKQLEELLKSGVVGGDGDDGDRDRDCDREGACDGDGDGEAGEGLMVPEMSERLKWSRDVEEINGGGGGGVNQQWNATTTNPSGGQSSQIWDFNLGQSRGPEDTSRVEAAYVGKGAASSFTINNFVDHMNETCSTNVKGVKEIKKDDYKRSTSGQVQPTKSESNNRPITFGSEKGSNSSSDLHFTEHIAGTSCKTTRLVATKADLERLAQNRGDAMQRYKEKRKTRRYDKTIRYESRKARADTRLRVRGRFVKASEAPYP

B1: FT-CORE2 EMSA probe (FT Biot) (dsDNA)
DNA 1: ATCAATAGACAAGAAAAAGATTGTGGTTATGATTTCACCGACCCGAGTTAATG
DNA 2: CATTAACTCGGGTCGGTGAAATCATAACCACAATCTTTTTCTTGTCTATTGAT
binding result: binds
